Measured values reported in US12018084B2, “Anti-CXCR2 antibodies and uses thereof” (Cephalon LLC, priority 2018, dated 2024).

T1: native human CXCR2 expressed by human neutrophils (Homo sapiens, UniProt P25025)
T1 construct: native human CXCR2 expressed by human neutrophils; endogenous in cells; host or cells: human peripheral blood cells (buffy coat, PBMC-enriched fractions, anticoagulated blood): neutrophils, monocytes
T1 sequence (P25025 1-360): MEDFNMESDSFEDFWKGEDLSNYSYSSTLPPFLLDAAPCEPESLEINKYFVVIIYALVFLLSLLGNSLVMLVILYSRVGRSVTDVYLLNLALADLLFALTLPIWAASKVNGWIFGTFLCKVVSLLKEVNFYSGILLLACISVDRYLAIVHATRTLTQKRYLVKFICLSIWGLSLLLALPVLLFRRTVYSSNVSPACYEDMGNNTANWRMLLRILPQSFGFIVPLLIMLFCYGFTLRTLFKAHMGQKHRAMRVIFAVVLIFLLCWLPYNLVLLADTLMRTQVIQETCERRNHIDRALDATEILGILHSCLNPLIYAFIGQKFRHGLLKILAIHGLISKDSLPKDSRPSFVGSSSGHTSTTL

T2: Human CXCR2 (Homo sapiens, UniProt P25025)
T2 sequence (P25025 1-360): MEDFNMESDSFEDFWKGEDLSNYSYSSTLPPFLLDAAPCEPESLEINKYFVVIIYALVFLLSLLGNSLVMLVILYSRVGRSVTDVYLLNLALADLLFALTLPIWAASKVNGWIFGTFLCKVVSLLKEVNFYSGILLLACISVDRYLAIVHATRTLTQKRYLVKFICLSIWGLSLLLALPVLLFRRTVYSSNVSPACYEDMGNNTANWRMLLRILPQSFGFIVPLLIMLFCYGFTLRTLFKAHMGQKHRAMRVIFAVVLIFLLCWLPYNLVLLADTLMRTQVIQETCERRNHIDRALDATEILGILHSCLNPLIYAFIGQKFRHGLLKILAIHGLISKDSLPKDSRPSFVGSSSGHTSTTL


Assays:
[1] = target: T1, native human CXCR2 expressed by human neutrophils; assay: Flow cytometry binding to human blood cells (neutrophils, monocytes, PBMC preparations); settings: FIG. 2, MFI
Procedure: (§1) Whole human buffy coat, PBMC enriched fractions prepared from human peripheral blood buffy coat or cynomolgus monkey whole blood was used for analysis of antibody binding activity by flow cytometry. Briefly, blood was untreated or diluted 1:1 in sterile filtered room temperature phosphate-buffered saline (PBS). 30 mL samples were layered over 15 mL Lymphoprep™ (Stem Cell Technologies, cat #07851). Peripheral blood mononuclear cells (PBMC) were enriched by room temperature centrifugation at 700 g for 30 minutes with no braking. The PBMC layer was isolated and cells washed in PBS containing 2 mM EDTA with low speed centrifugation at 200 g, to remove platelet contamination. Whole blood or PBMC enriched cell fractions were resuspended in red blood cell lysing solution (BioLegend, 420301). Viable cell counts were determined and cells resuspended at 1×10^7 cells per mL in FACS buffer (1×PBS+0.5% (w/v) BSA+2 mM EDTA pH 7.2).
(§2) Flow cytometry binding assays using whole blood or PBMC enriched preparations: Binding assays to detect CXCR2 on blood neutrophil populations using test antibodies were performed essentially as described for assays using transiently transfected Expi293F™ cells. Binding of antibodies to human CXCR2 on the surface of the neutrophils was measured using anti-CXCR2 antibody directly conjugated to the fluorophore allophycocyanin (APC). Matched isotype control antibodies were included for comparison. Cells were incubated with lineage specific antibodies and 2 μg/ml of APC conjugated anti-CXCR2 antibody or isotype control prepared in ice cold 3% BSA/PBS for a minimum of 30 minutes at 4° C. The commercial anti-CXCR2 antibody (clone 48331 (R&D Systems FAB331A)) was used as a positive control. Neutrophil populations were identified by characteristic granularity and size, and positive binding of commercially available antibodies against CD10 (Biolegend, clone H110a, catalogue number 312204). Cells were washed and fixed (BioLegend Fixation buffer, 420801) prior to analysis. The level of fluorescence on the cell surface was measured by flow cytometry. Using this method, test anti-CXCR2 antibodies were detected binding neutrophils from both human and cynomolgus monkey.
To further characterize the anti-CXCR2 antibody BKO-4A8-101c, the ability to bind CXCR2 on neutrophils was tested on anticoagulated human blood. Binding was measured using BKO-4A8-101c directly conjugated to fluorophore APC. Matched isotype control antibodies conjugated to APC were included for comparison. Cells were incubated with lineage-specific antibodies and 2 μg/mL of APC conjugated anti-CXCR2 antibody or isotype control. The level of fluorescence on the cell surface was measured by flow cytometry. […]

[2] = test system: native cynomolgus CXCR2 expressed by cynomolgus neutrophils; assay: Flow cytometry binding to cynomolgus blood neutrophils; design: species or system cynomolgus monkey; settings: FIG. 2, MFI
Procedure: as §1
as §2, with “Neutrophil populations were identified by characteristic granularity and size, and positive binding of commercially available antibodies against CD10 (Biolegend, clone H110a, catalogue number 312204). Cells were washed and fixed (BioLegend Fixation buffer, 420801) prior to analysis.” left out

Human CXCR2 = target: T2, Human CXCR2; assay: Flow cytometry binding assay, Expi293F cells transiently transfected with human CXCR2; design: host or cells: Expi293F cells, vector pTT5; settings: for Fold change in binding relative to BKO-4A8: point variant chain co-expressed with parental other chain
Procedure: For each 10 mL transfection, lipid-DNA complexes were prepared by diluting 10 μg of plasmid DNA in Opti-MEM™ I Reduced Serum Medium (Cat. no. 31985-062) to a total volume of 1.0 mL. 54 μL of ExpiFectamine™ 293 Reagent was diluted in Opti-MEM™ I medium to a total volume of 1.0 mL. Transfections were carried out according to manufacturer's instructions. The cells were incubated in a 37° C. incubator with a humidified atmosphere of 8% CO2 in air on an orbital shaker rotating at 200 rpm. Approximately 18-24 hours post-transfection, the cell viability was evaluated and transfected cells harvested for use.
Harvested cells were resuspended in FACS buffer (1×PBS+0.5% (w/v) bovine serum albumin (BSA)+2 mM EDTA pH 7.2). Approximately 2×10^5 cells were added per well in a 96-well round-bottomed plate. Cells were pelleted by centrifugation at 400 g for 5 mins at 4° C. and supernatants discarded. 25 μL of each test antibody or control antibody was added to the cells and incubated for 30 minutes at 4° C. Cells were washed twice in 100 μL FACS buffer followed by centrifugation at 400 g for 5 mins at 4° C.
For detection, 50 μL of secondary antibody (Table 2) was added to relevant samples. Commercially available antibodies that bound to transfected CXCR family members were used as positive controls to ensure that the cells were expressing the receptors. Cells were washed twice in 200 μL of FACS buffer followed by centrifugation at 400 g for 5 mins at 4° C. Before sample acquisition, cells were resuspended in 100 μL of FACS buffer. Samples were acquired using the high throughput sampler on a FACSCanto™ II cytometer (Beckton-Dickinson).
Binding of BKO-4A8 and variants thereof was detected by incubation of fluorochrome-conjugate anti-human IgG light chain lambda antibody. The binding activity of antibodies tested, quantified as mean fluorescent intensity, was independent of the antibody Fc region as illustrated in FIG. 9.

Sequence of native cynomolgus CXCR2 expressed by cynomolgus neutrophils (as listed by the source): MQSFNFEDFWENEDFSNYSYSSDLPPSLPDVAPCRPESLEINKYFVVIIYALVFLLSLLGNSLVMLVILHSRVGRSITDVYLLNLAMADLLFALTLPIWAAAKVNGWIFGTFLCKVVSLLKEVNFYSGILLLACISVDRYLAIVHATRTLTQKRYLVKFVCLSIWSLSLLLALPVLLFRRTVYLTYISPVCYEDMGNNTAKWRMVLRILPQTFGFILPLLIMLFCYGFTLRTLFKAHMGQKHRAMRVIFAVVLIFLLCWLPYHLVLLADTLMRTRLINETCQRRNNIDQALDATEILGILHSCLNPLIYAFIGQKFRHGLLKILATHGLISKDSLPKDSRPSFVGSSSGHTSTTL

Molecule	binding to native human CXCR2 on human PBMCs / neutrophils [1]	Fold change in binding relative to BKO-4A8 (Human CXCR2)	binding to native cynomolgus CXCR2 on cynomolgus PBMCs / neutrophils [2]	other results
106c: VH SEQ ID NO: 166, VL SEQ ID NO: 110 (antibody, V domains shown, 4A8 VH Variant 106 M34Q_A40P_R53S_R55G_N56S_ R75K_M96E; 4A8 VL variant c D41G_N52S_N94S) VH: EVQLLESGGGLVQPGGSLRLSCAASGFTFSSSTQSWVRQPPGKGLEWVSAISGSGGSTYYADSVKGRFTISRDNSKNTLYLQMNSLRAEDTAVYYCAIQEGYWGQGILVTVSS VL: QSALTQPPSASGSPGQSVTISCIGTSSDVGGYNYVSWYQQHPGKAPKLMIYEVSKRPSGVPDRFSGSKSGNTASLTVSGLQAEDEADYYCSSYAGSNNFGVFGGGTKLTVL	–	–	–	CXCR2 binding activity versus parental BKO-4A8 (Human CXCR2; combinatorial variants with light chain c): reduced
V97K: BKO-4A8 point variant, VL SEQ ID NO: 97 (antibody, V domains shown, VH not cited; 4A8 VL V97K) VL: QSALTQPPSASGSPGQSVTISCIGTSSDVGGYNYVSWYQQHPDKAPKLMIYEVNKRPSGVPDRFSGSKSGNTASLTVSGLQAEDEADYYCSSYAGNNNFGKFGGGTKLTVL	–	1.0	–	–
V97A: BKO-4A8 point variant, VL SEQ ID NO: 96 (antibody, V domains shown, VH not cited; 4A8 VL V97A) VL: QSALTQPPSASGSPGQSVTISCIGTSSDVGGYNYVSWYQQHPDKAPKLMIYEVNKRPSGVPDRFSGSKSGNTASLTVSGLQAEDEADYYCSSYAGNNNFGAFGGGTKLTVL	–	1.7	–	–
Y91A: BKO-4A8 point variant, VL SEQ ID NO: 83 (antibody, V domains shown, VH not cited; 4A8 VL Y91A) VL: QSALTQPPSASGSPGQSVTISCIGTSSDVGGYNYVSWYQQHPDKAPKLMIYEVNKRPSGVPDRFSGSKSGNTASLTVSGLQAEDEADYYCSSAAGNNNFGVFGGGTKLTVL	–	1.7	–	–

Continued, in another order:

binding to native human CXCR2 on human PBMCs / neutrophils [1]	Fold change in binding relative to BKO-4A8 (Human CXCR2)	Molecule	binding to native cynomolgus CXCR2 on cynomolgus PBMCs / neutrophils [2]	other results
high binding activity	–	BKO-8G3_b: recombinant, VH SEQ ID NO: 41, VL SEQ ID NO: 42 (antibody, V domains shown, BKO_8G3_H4_D04_VH; BKO_8G3_L1_G01_VL) VH: EVQLLESGGGLVQPGGSLRLSCAASGFTFSSYAMSWVRQAPGKGLEWVSAITGSGGSTYYADSVKGRFTISRDKSKNTLYLQMNSLRAEDTAVYYCAIRLGYWGQGSLVTVSS VL: QSALTQPPSASGSPGQSVTISCTGTSSDVGGYNYVSWYQQHPGKVPKLVIYEVSKRPSGVPDRFSGSKSGNTASLTVSGLQAEDEADYYCSSYAGSNNFGVFGGGTKLTVL	high binding activity	–
substantial levels of binding	–	BKO-9C3_a: recombinant, VH SEQ ID NO: 49, VL SEQ ID NO: 50 (antibody, V domains shown, BKO_9C3_H8_G08_VH; BKO_9C3_L1_F01_VL) VH: EVQVLESGGGLVQPGGSLRLSCAASGFTFRSYAMSWVRQAPGKGLEWVSAISGSGGSTYYADSVKGRFTISRDKSKNTLYLQMNSLRAEDTAVYYCAIQLGYWGQGTLVTVSS VL: QSALTQPPSASGSPGQSVIISCTGTSSDVGGYNYVSWYQQHPGKVPKLMIYEVSKRPSGVPDRFSGSKSGNTASLTVSGLQAEDEADYYCTSYAGSNNFGVFGGGTKLTVL	above average levels of binding	–
